Target: FLAG-Nrxn1β(−SS4) (UniProt Q63373)
Assay: cell surface binding with Scatchard analysis

With “SorCS1-ecto-His (from UniProt Q9JLC4 34-1098) (domain or fragment)” the Kd was 2.22 nM.

Reference: publication PMC4692362
